Source: PMC5146963
“And” between values parts separate entries of the source, which are not always exact repeats. Identical values can stand only once.

What was measured:
[1] = system: EcFrmR (Escherichia coli K12); experiment: BLI; conditions: BLItz, 50 mM Tris-HCl pH 8.0, 0.5 M NaCl, 20 C, 100 nM biotinylated DNA loaded on SA tips, EcFrmR concentrations as tetramer
[2] = target: T1, EcFrmR (Escherichia coli K12) (UniProt P0AAP3); experiment: BLI; conditions: BLItz, 50 mM Tris-HCl pH 8.0, 0.5 M NaCl, 20 C; 100 nM biotinylated DNA loaded on SA tips; EcFrmR concentrations as tetramer
T1 sequence: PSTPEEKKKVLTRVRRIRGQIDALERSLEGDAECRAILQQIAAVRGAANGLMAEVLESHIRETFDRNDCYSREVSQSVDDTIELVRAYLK

In the case of Pfrm (frmRAB promoter), the Kd ([1]; Zn(II)4-loaded tetramer, kf 5660 M-1 s-1, kr 0.003 s-1) is reported as 0.52 µM and the Kd ([1]; no Zn, no HCHO, kf 13000 M-1 s-1, kr 0.0028 s-1, text ~220, upper limit) is reported as 0.22 µM.
“GTTAAGGGCTCAGAATAATCACATTATTTTTTCTCCTAACCATAAAGGATTAGTTTATCGGCGTTAATCTTTTCTCATACACTATCGGGTTAGGGAAAATATCTGGTGTTGGGGACAGAGTCAGCAGCGTATTAGTTGAATGCTTAATATCAGGCTGCTGAATTGTCAGCACTGTGTTTGCGAAGAGGATGCGAAATAAATGAACCCGGTTGATCGTCCACTATTAG (double strand) [PydhY]” showed a Kd [2] of 3.6 µM.
Work on PydhY yielded a Kd ([1]; no Zn, no HCHO, kf 1950 M-1 s-1, kr 0.007 s-1, text ~3600) of 3.6 µM.
In the case of “GGCCTTCCCTGCCGATTAGCCCCCCCCCCTTTCCTCTTTGTTTTCCGACCACATTCACCGGATAAATTTTATTCTCCAGTGTTATATACTATAGGGGGGTATGCATTGACATATAGAATACCCCCCTATAGTATATTGCATGCAGATGATGAGGTGCGAAATGCCCAGTACTCCGGAAGAGAAGAAA (double strand) [Pfrm (frmRAB promoter)]”, the Kd [2] is reported as 0.22 µM and 0.52 µM.
